From the supplement of paper PMC10567573

B1: TRIM9 (parent)
chain: CVQCKMPVCYQCLEEGKHSSHEVK
B2: CDKN1A (parent)
chain: GRKRRQTSMTDFYHSKRRLIFSKR

Variants of: B1
Assay: protein stability index of a GFP-peptide fusion (GPS, HEK-293T) (PSI 1-6); higher = more stable
Details: c terminus: a fixed tail appended
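Note: lentivirally expressed fusions sorted by FACS into six bins by GFP to DsRed ratio, PSI derived from sequencing read proportions per bin multiplied by bin number.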

Protein stability index: each site, then its substitutions
Q11: C 4.83 | Y 3.52 | H 3.2 | R 3.77 | I 3.4 | E 3.57
H21: L 3.87 | P 4.08 | T 4.47 | M 3.7
Y10: V 3.74 | P 3.63 | T 3.52 | L 4.61 | I 3.71 | W 2.51
K5: Q 2.83 | L 2.58 | P 3.52 | H 3.8 | C 3.84 | W 3.03
C1: H 4.52 | G 2.88 | P 2.86 | D 3.77 | Q 4.03
H18: F 3.78 | D 4.46 | W 3.04 | G 3.63 | P 3.28 | R 3.82 | Q 3.47 | T 4.11 | K 3.7 | E 3.56
V23: H 3.32 | D 4.44 | I 3.7 | T 3.84 | C 4.65 | S 3.37
S20: V 3.75 | D 4.3 | C 4.32 | T 4.07
E15: F 2.82 | W 2.72 | T 3.69 | P 3.88 | G 4.15 | M 3.75 | Y 3.36 | C 4.14
S19: D 3.8 | C 3.85 | H 3.45 | G 3.67 | Q 4.51 | I 3.4
K17: V 3.81 | Q 4.5 | S 3.42 | R 2.96 | Y 3.54 | H 4.47
E22: T 4 | R 3.12 | P 3.33 | D 3.29 | N 3.67
P7: G 4.59 | K 3.84 | T 3.08 | S 3.65 | M 4.33
V8: K 5.1 | I 3.66 | N 4.49 | M 4.13 | E 4.41 | F 4.03 | H 4.89
Q3: D 3.91 | T 3.56 | K 3.73 | G 3.73
K24: N 3.89 | C 4.97 | V 3.8 | M 3.68 | G 3.19
V2: Q 4.04 | T 3.85 | M 3.67
G16: H 3.36 | A 4.02 | R 3.27 | I 3.25
C9: A 4.19 | L 3.28 | T 4.41 | R 3.31 | V 4.07
C12: M 3.7 | W 2.92 | T 3.42 | H 4.34 | Y 3.58 | A 3.35 | K 4.8
M6: H 4.3 | C 3.73 | T 3.96 | V 4.13 | P 3.62
L13: I 4.08 | D 4.04 | M 4.21 | P 4.47 | R 4.13 | Q 4.48 | E 4.16 | H 4.55 | G 4.81
E14: I 3.55 | C 4.34 | G 4.14
C4: F 2.66 | R 2.83 | E 3.38 | M 3.37 | Q 3.39

Variants of: B2
Assay: as above
Details: c terminus: a fixed tail appended

Protein stability index of substitutions, site by site:
H14: I 2.72 | M 3.3 | S 2.34 | Y 4 | N 3.62 | W 2.08 | Q 3.39 | R 3.52 | P 4.57 | C 2.43
F21: T 3.22 | K 3.14 | E 2.62 | H 3 | D 3.79 | A 2.4 | N 3.63 | S 3.66 | W 3.45 | P 1.99
I20: R 2.15 | N 3.51 | F 3.1 | M 2.86 | D 2.84
K23: W 2.87 | N 2.3 | L 1.96
R18: V 2.93 | L 3.13 | M 1.86 | H 2.15 | K 2.64 | A 3.35 | S 2.77
Q6: S 2.25 | A 2.06 | K 2.55 | E 2.73 | V 2.38 | G 2.76 | W 2.47 | D 2.1
R5: A 2.74 | S 2.44 | H 3.17 | L 3.53 | Q 2.87 | Y 3.17 | G 2.4
T10: Y 2.53 | L 2.45 | H 2.93 | R 2.39 | M 2.38 | W 2.16 | G 2.85
R2: W 2.53 | F 3.25 | K 3.08 | D 2.78 | G 3.19 | M 3.79 | E 4.5 | T 2.8 | S 3.05
K3: A 3.12 | N 2.73 | H 3.57 | D 3.2 | Q 2.98 | P 2.16 | C 3.54 | Y 5.28 | S 3.96 | T 2.5
F12: D 3.14 | G 3.04 | S 2.42 | R 2.73 | Q 2.46 | E 3.15 | Y 2.17 | H 1.61
R17: S 3.19 | V 4.34 | D 3.57 | F 2.19 | T 3.02 | A 2.13 | Q 3.46 | N 3.38 | E 3.75 | H 2.64 | I 2.97
S22: A 3.99 | Q 3.09 | T 2.87 | M 4.04 | N 2.57 | I 2.53 | C 2.35
T7: A 1.97 | W 2.36 | S 2.71 | C 2.87 | Q 2.12 | N 2.48 | D 2.1
R4: Y 3.36 | T 3.95 | D 3.24 | M 2.77 | S 2.85 | K 3.46 | W 3.56 | C 2.73 | P 3.12
S8: L 3.4 | M 2.68 | E 2.74 | R 2.72 | F 3.4 | P 1.76 | T 3.3 | D 2.46
S15: A 2.47 | M 1.92 | L 1.78 | P 2.59 | N 3.16 | C 2.1
M9: C 2.34 | T 1.91 | I 3.23 | R 3.05 | N 3.29 | F 2.6 | L 2.98 | V 2.96 | D 4.34 | S 3.08 | E 2.27 | H 3.21
K16: R 4.25 | Y 2.93 | W 3.97 | H 2.96 | I 3.82 | G 2.62 | F 2.28 | E 3.76
R24: L 3.19 | G 3.52 | N 3.1 | Q 3.2 | E 2.67 | H 2.4 | Y 2.91 | A 3.13
G1: T 2.06 | E 3.02 | Q 3.03 | N 2.55 | K 3.34 | V 2.06 | A 2.81 | F 2.85 | C 3.45 | M 2.88 | H 3.16 | D 3.06 | Y 2.99 | I 2.94 | W 3.87
Y13: R 3.93 | Q 3.92 | W 2.7 | S 3.57 | D 4.24 | M 2.33 | K 2.66 | H 3.22 | N 3.25
D11: W 2.21 | L 2.29 | S 3.06 | F 2.51 | Q 2.89 | H 1.82 | T 2.2 | Y 2.07 | N 2.4
L19: N 3 | G 2.71 | R 2.77 | P 2.14 | Q 3.85 | I 2.65 | K 3.86
